Biological target: Recombinant SARS-CoV-2 spike protein ectodomain, native glycosylation (SARS-CoV-2) (UniProt P0DTC2)
Assay: ELISA

Work on “Flt3 Receptor Interacting Lectin (FRIL) from Lablab purpureus (from UniProt Q9ZTA9) (natural protein)” yielded a lowest FRIL concentration at which binding was seen of 10 ng/mL.

— article PMC7380208
